# According to paper PMC5778602:
# Where two headings read alike, the source gives them in different places.
# T1: CstF-50;CstF-77ΔN;CstF-64RH (Homo sapiens;Homo sapiens;Homo sapiens, UniProt Q05048;Q12996;P33240 1-431;241-717;1-199, |del1-240|)
# T1 sequence 1: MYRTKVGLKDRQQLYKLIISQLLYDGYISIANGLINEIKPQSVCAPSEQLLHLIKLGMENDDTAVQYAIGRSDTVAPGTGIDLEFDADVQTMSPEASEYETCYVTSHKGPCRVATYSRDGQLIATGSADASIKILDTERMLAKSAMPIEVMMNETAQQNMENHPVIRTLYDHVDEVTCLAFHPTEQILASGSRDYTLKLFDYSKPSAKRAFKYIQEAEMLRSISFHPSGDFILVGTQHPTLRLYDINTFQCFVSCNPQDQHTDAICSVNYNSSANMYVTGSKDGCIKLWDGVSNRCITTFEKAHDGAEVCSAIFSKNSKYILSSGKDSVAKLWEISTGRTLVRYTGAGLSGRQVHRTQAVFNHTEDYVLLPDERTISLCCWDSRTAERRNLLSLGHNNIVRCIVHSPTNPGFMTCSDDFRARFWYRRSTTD
# T1 sequence 2: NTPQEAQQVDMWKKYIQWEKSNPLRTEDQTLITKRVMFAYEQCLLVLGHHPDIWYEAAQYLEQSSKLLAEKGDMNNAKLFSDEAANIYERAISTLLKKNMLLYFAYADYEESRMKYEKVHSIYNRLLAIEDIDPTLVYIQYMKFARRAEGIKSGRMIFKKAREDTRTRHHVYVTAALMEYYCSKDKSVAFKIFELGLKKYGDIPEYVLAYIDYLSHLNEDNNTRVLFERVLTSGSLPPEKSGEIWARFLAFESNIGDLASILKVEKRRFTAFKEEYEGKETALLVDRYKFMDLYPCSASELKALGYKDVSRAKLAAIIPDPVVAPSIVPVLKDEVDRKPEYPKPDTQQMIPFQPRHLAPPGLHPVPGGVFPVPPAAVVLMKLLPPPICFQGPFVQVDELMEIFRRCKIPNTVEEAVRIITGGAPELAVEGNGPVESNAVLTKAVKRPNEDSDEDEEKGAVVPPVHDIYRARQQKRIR
# T1 sequence 3: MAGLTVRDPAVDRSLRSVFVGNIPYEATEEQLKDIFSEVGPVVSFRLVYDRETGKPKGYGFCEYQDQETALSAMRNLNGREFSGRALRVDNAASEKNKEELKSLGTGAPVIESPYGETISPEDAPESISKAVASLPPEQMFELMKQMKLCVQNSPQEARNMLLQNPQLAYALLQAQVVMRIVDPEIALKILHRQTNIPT
# T2: CstF-64 RRM (Homo sapiens, UniProt P33240 16-94)
# T2 sequence: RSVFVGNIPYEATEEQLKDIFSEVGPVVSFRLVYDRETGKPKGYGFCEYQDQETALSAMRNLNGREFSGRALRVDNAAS
# T3: CstF-77ΔN;CstF-64RH (Homo sapiens;Homo sapiens, UniProt Q12996;P33240 241-717;1-199, del1-240|)
# T3 sequence 1: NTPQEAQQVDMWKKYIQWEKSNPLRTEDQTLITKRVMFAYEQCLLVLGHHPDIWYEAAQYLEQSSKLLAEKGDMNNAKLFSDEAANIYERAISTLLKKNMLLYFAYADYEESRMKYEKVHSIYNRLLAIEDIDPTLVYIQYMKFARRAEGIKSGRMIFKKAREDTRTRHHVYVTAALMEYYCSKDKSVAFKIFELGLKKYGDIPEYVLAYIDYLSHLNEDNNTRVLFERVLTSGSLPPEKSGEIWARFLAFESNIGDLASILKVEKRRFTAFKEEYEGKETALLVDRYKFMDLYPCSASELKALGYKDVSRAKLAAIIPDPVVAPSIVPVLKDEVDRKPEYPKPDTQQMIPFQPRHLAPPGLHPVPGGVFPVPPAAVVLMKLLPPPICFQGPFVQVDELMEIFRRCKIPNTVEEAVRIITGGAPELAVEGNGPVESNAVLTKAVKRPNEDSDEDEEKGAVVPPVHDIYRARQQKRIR
# T3 sequence 2: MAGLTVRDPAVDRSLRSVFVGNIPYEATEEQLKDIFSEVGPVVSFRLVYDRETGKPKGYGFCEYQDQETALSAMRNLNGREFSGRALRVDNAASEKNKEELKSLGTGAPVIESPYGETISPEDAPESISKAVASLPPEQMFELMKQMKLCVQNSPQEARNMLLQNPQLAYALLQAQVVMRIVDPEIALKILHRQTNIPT
# What was measured:
# Experiment in all cases: ITC
# [1] = molecular target: T1, CstF-50;CstF-77ΔN;CstF-64RH
# CstF-64 RRM = molecular target: T2, CstF-64 RRM
# CstF-77ΔN;CstF-64RH [2] = molecular target: T3, CstF-77ΔN;CstF-64RH
# [3] = molecular target: T1, CstF-50;CstF-77ΔN;CstF-64RH; remark: listed apart in the source
# CstF-77ΔN;CstF-64RH [4] = molecular target: T3, CstF-77ΔN;CstF-64RH; remark: listed apart in the source
# [5] = molecular target: T1, CstF-50;CstF-77ΔN;CstF-64RH; remark: listed apart in the source
# CstF-77ΔN;CstF-64RH [6] = molecular target: T3, CstF-77ΔN;CstF-64RH; remark: listed apart in the source
# [7] = molecular target: T1, CstF-50;CstF-77ΔN;CstF-64RH; remark: listed apart in the source
binder,measurement,setting,value
GUGUGUGUGUGUGU (ssRNA) [GU14],Kd,[1],~120 nM
same,Kd,CstF-64 RRM,~2500 nM
same,Kd,CstF-77ΔN;CstF-64RH [2],~160 nM
GUGUGUGU (ssRNA) [GU8],binding signal,[3],~2.5 fold tighter than GU6
GUGUGACCCUUUUU (ssRNA) [UUUUU-containing RNA],Kd,CstF-77ΔN;CstF-64RH [4],~3.7 µM
ACACACACACACAC (ssRNA) [AC14],binding result,[5],no binding
GUGUGUGUGU (ssRNA) [GU10],binding result,CstF-77ΔN;CstF-64RH [6],binds
same,Kd,[7],~500 nM
